Data set [1] has as its target IDX-1 (IDX-1/pBJ5 expressed in NIH-3T3) (Rattus norvegicus, UniProt P52947 SEQ:1-283). As to the kind of experiment: cell_activity; CAT reporter in NIH-3T3. From the text:
Several different reporter constructs were used in cotransfection experiments with IDX-1/pBJ5 expression vector. The SMS900CAT plasmid consists of nucleotides −900 to +54, relative to the transcription start site, of the rat somatostatin gene linked 5' to the coding sequence of the bacterial chloramphenicol acetyl transferase (CAT) gene (Powers et al., 1989, supra). The plasmid SMS900(Δ−250/−120)CAT is identical to SMS900CAT with the exception of an internal deletion between nucleotides −250 and −120. This deletion removes a putative transcriptional suppressor region located between nucleotides −237 and −189 of the rat somatostatin gene (Vallejo et al., in preparation). SMS(−900/−250) TKCAT contains −900 to −250 of the rat somatostatin gene linked 5' to the herpes simplex thymidine kinase promoter in the CAT reporter plasmid PUTKAT (Prost and Moore, 1986, Gene 45:107). The plasmids SMS900CAT(TAAT1mut), SMS900CAT(TAAT2mut) and SMS900CAT(UE-Bmut) were created using oligonucleotide-directed mutagenesis (Kunkel, 1985, Proc. Natl. Acad. Sci. USA 82:488) to introduce clustered nucleotide substitutions in the IDX-1 binding sites located at −450, −290, and —90, respectively, within the SMS900CAT reporter. For SMS-TAAT1, the central 5'-ATTAAT-3' was converted to 5'-GCCGGC-3'. […]

Data set [2] deals with T1, IDX-1 (GST fusion, full length) (Rattus norvegicus, UniProt P52947 SEQ:1-283). As to the kind of experiment: EMSA; appears weaker than SMS-TAAT1. Particulars: tags: N-terminal GST (pGEX-KG), bacterially expressed; label: 32P. Here is the method:
(§1) Electrophoretic mobility shift assays (EMSA) were performed as described (Ron et al., 1990, Mol. and Cell. Biol. 10:1023) using bacterially-expressed IDX-1 or nuclear extracts prepared from RIN1027-B2 cells (Dignam et al., 1983, supra). PCR was used to generate a bacterial expression vector encoding the full length IDX-1 protein fused to glutathione S-transferase(GST). An oligonucleotide amplimer was designed to create an NcoI site at the initiation methionine of the IDX-1 cDNA. This primer was used in conjunction with the T3 primer to amplify the IDX-1 cDNA insert from an IDX-1/pBS(KS) subclone. The PCR product was digested with NcoI and XhoI, gel-purified, and ligated into NcoI/XhoI-cut pGEX-KG (Pharmacia Biotech Inc., Piscataway, N.J.). Expression and purification of the GST/IDX-1 fusion protein was performed as described (Smith and Johnson, 1988, supra).
(§2) Nuclear extracts form RIN1027-B2 cells or purified bacterially-expressed GST/IDX-1 were incubated with the following ^32P-labelled double-stranded oligonucleotide probes: 1) INS1-FLAT, the Far-linked AT-rich element of the rat insulin 1 gene (German et al., 1992, Mol. Cell. Biol. 12:1777) (5'-[…]-3'); 2) SMS-TAAT1, a FLAT-like element (5'-[…] […]
A general note: Mobility shift assays separate free from complexed probe on a gel.

The target in data set [3] is T1, IDX-1 (GST fusion, full length). The experiment in a line: EMSA; data not shown; protein preparation not stated. The note with it: tags: N-terminal GST (pGEX-KG), bacterially expressed.
Data set [4] shares this target. The experiment in a line: EMSA. Particulars: tags: N-terminal GST (pGEX-KG), bacterially expressed; label: 32P. The protocol:
as §1, §2

Data set [5] shares this target. The experiment in a line: EMSA; several complexes. Particulars: tags: N-terminal GST (pGEX-KG), bacterially expressed; label: 32P. Here is the method:
as §1, §2

T1 sequence (P52947 other isoform, or with tags, fused parts or gaps): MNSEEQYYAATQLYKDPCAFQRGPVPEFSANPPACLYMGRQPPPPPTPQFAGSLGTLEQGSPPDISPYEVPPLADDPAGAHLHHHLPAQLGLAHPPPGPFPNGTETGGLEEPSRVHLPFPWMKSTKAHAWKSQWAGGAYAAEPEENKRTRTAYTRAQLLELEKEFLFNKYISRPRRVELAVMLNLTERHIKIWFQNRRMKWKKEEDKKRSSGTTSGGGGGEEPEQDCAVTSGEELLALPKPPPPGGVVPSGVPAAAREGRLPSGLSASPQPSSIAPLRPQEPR
Sequence of IDX-1 (IDX-1/pBJ5 expressed in NIH-3T3) (P52947 other isoform, or with tags, fused parts or gaps): as above

B1: 6x SMS-TAAT1 in SMS65CAT (dsDNA)
DNA 1: GATCCCTGATTGCATATTAATTCTCAGATA
DNA 2: TATCTGAGAATTAATATGCAATCAGGGATC
In turn, B1 had an activity in data set [1] of 34 fold.

B2: SMS-TAAT2 (dsDNA)
DNA 1: GATCCGATCTCAGTAATTAATCATGCACCA
DNA 2: TGGTGCATGATTAATTACTGAGATCGGATC
For the molecule B2, the binding result in data set [2] is listed as “binds”.

B3: SMS-UE-B mutant (dsDNA)
DNA 1: GATCCGCGAGGTCGGCAGTGCGTAAAAGCACTGGTGA
DNA 2: TCACCAGTGCTTTTACGCACTGCCGACCTCGCGGATC
modifications: [12-17]
B3: the binding result in data set [3] is given as “no binding”.

B4: SMS-TAAT1 mutant (dsDNA)
DNA 1: GATCCCTGATTGCATGCCGGCTCTCAGATA
DNA 2: TATCTGAGAGCCGGCATGCAATCAGGGATC
modifications: [16-21]
For B4, in data set [3], the binding result was “no binding”.

B5: SMS-UE-B (dsDNA)
DNA 1: GATCCGCGAGGCTAATGGTGCGTAAAAGCACTGGTGA
DNA 2: TCACCAGTGCTTTTACGCACCATTAGCCTCGCGGATC
For the molecule B5, the binding result in data set [4] was “binds”.

B6: SMS-TAAT2 mutant (dsDNA)
DNA 1: GATCCGATCTCAGCGGCCGATCATGCACCA
DNA 2: TGGTGCATGATCGGCCGCTGAGATCGGATC
modifications: [14-19]
On to B6, for which, in data set [3], the binding result was “no binding”.

B7: INS1-FLAT (dsDNA)
DNA 1: GATCCTTGTTAATCTAATTACCCTAGGTCTAA
DNA 2: TTAGACCTAGGGTAATTAGATTAACAAGGATC
For the molecule B7, the binding result in data set [5] is on record as “binds”.

B8: SMS-PS (dsDNA)
DNA 1: GATCCAGGCAAGATTATTTGGTCA
DNA 2: TGACCAAATAATCTTGCCTGGATC
Turning to B8, in data set [4], the binding result is given as “no binding”.
